A word on the EC50: it is the concentration giving half of the maximal effect. Read a high EC50 as a need for much substance.

This test deals with T1, human KLB on CHOK1-hKLB cells (human, UniProt Q86Z14 1-1044).
T1 construct: whole, on cells; also called human KLB antigen; β-Klotho
T1 sequence (looked up): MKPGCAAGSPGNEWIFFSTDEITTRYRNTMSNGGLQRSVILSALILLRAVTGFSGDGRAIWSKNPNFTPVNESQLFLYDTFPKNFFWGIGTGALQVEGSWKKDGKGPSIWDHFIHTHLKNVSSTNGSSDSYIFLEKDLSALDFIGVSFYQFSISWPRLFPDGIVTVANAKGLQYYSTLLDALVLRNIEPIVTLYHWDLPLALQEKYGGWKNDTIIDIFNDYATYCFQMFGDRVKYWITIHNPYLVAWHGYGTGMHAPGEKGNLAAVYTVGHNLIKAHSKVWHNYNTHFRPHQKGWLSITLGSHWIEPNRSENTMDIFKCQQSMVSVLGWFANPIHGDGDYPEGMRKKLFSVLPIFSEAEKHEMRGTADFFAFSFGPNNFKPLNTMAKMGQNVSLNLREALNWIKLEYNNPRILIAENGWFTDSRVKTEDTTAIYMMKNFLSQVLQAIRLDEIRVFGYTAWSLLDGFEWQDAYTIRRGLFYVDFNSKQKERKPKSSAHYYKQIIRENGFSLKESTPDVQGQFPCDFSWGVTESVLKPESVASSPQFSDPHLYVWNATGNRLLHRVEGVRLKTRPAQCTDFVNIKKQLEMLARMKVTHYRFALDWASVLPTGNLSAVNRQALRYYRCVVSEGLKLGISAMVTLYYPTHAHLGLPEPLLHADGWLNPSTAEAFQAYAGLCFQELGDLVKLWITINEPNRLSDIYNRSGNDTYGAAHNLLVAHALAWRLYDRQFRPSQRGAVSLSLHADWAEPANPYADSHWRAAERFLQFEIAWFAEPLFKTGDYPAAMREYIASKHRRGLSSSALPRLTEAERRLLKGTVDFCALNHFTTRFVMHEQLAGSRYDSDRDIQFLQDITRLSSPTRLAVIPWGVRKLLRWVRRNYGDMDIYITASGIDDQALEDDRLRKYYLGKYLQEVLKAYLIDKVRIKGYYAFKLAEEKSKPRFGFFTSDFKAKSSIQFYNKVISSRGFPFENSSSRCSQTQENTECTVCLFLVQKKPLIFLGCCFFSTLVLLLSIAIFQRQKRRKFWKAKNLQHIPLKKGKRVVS
Kind of test: flow cytometry on CHOK1-hKLB cells. The source says:
The above heavy chain variable regions were fused to the heavy chain constant region (set forth in SEQ ID NO: 22) and the light chain variable regions were fused to the light chain constant region (set forth in SEQ ID NO: 23) to construct anti-KLB antibodies, and the binding activity of the obtained antibodies for CHOK1-hKLB was detected (see Test Example 2 of the present disclosure for the experimental method).
The binding ability of the antibodies for CHOK1 cell strains CHOK1-hKLB and CHOK1-cynoKLB overexpressing human KLB and monkey KLB (see Example 1 for specific preparation procedure), respectively, was detected by flow cytometry. The specific procedure was as follows: the above cells were cultured in 10% FBS-containing IMDM medium and incubated in an incubator at 37° C. and 5% CO₂ for 2 days. The cells were then added to a cell plate at 1×10⁵ cells per well, centrifuged at 300 g for 5 min, and then washed once with 1% BSA. The antibody diluted in gradient was added to the cell plate at 100 μL per well, and the mixture was incubated at 4° C. for 1 h and washed once with 1% BSA. The diluted (1:400) APC-goat anti-human IgG Fc fluorescent secondary antibody was added at 100 μL per well, and the resulting mixture was incubated at 4° C. for 1 h. The plate was washed three times with 1% BSA, PBS was added at 100 μL per well, and the plate was read.
A general note: Flow cytometry measures light scatter and fluorescence of single cells or particles in a stream.

Positions count from the first letter of the chain named. Names and notes keep the numbering of the source.

B1: hAb99-6 (antibody, human IgG1, kappa, L234A L235A)
heavy: not shown
light: DIQMTQSPSSLSASVGDRVTITCRASKSISKFLAWFQQKPGKTNKLLIYSGSTLQSGVPSRFSGSGSGTDFTLTISSLQPEDFATYYCQQHNEYPWTFGGGTKVEIKRTVAAPSVFIFPPSDEQLKSGTASVVCLLNNFYPREAKVQWKVDNALQSGNSQESVTEQDSKDSTYSLSSTLTLSKADYEKHKVYACEVTHQGLSSPVTKSFNRGEC
notes: humanized mAb-99: hAb99VH2 + hAb99VL2; human IgG1 (L234A, L235A) / kappa constant regions
With B1, the concentration for a half-maximal effect (EC50) turned out to be 410 pM.

B2: hAb99-19 (antibody, human IgG1, kappa, L234A L235A, V domains shown)
VH: EVQLVQSGAEVKKPGASVKVSCKTSGYTFTNYGINWVRQAPGQGLEWMGYIYIGNVDIEYNAKFKGRVTITSDTSASTAYMELSSLRSEDTAVYFCARGRGLGHFDVWGQGTTVTVSS
VL: DIQMTQSPSSLSASVGDRVTITCRASKSISKFLAWFQQKPGKTNKLLIYSGSTLQSGVPSRFSGSGSGTDFTLTISSLQPEDFATYYCQQHNEYPWTFGGGTKVEIKR
notes: humanized mAb-99: hAb99VH3-NV + hAb99VL2; human IgG1 (L234A, L235A) / kappa constant regions
B2: the midpoint of the response, the EC50, lay at 380 pM.

B3: hAb99-11 (antibody, human IgG1, kappa, L234A L235A)
heavy: not shown
light: B1 light with I2V, M4I
notes: humanized mAb-99: hAb99VH3 + hAb99VL3; human IgG1 (L234A, L235A) / kappa constant regions
B3: the EC50 came out at 330 pM.

B4: hAb99-3 (antibody, human IgG1, kappa, L234A L235A)
heavy: not shown
light: B1 light with I2V, M4I
notes: humanized mAb-99: hAb99VH1 + hAb99VL3; human IgG1 (L234A, L235A) / kappa constant regions
B4 displayed a half-maximal effective concentration (EC50) of 350 pM.

B5: hAb99-8 (antibody, human IgG1, kappa, L234A L235A, V domains shown)
VH: B2 VH with T24A, V56G, F95Y
VL: B2 VL with I2V, M4I, Q38E, V58I
notes: humanized mAb-99: hAb99VH2 + hAb99VL4; human IgG1 (L234A, L235A) / kappa constant regions
The molecule B5 gave an EC50 of 390 pM.

B6: hAb99-7 (antibody, human IgG1, kappa, L234A L235A)
heavy: not shown
light: B1 light with I2V, M4I
notes: humanized mAb-99: hAb99VH2 + hAb99VL3; human IgG1 (L234A, L235A) / kappa constant regions
Take B6: the EC50 is 350 pM.

B7: hAb99-20 (antibody, human IgG1, kappa, L234A L235A, V domains shown)
VH: B2 VH with V56L
VL: B2 VL
notes: humanized mAb-99: hAb99VH3-NL + hAb99VL2; human IgG1 (L234A, L235A) / kappa constant regions
B7: the half-maximal effective concentration (EC50) stood at 410 pM.

B8: hAb99-18 (antibody, human IgG1, kappa, L234A L235A, V domains shown)
VH: B2 VH with T24A, N55Q, V56G, F95Y
VL: B2 VL
notes: humanized mAb-99: hAb99VH2-QG + hAb99VL2; human IgG1 (L234A, L235A) / kappa constant regions
Take B8: the EC50 is 430 pM.

B9: hAb99-10 (antibody, human IgG1, kappa, L234A L235A)
heavy: not shown
light: B1 light
notes: humanized mAb-99: hAb99VH3 + hAb99VL2; human IgG1 (L234A, L235A) / kappa constant regions
As to B9, a half-maximal effect (EC50) was put at 360 pM.

B10: hAb99-5 (antibody, human IgG1, kappa, L234A L235A, V domains shown)
VH: B2 VH with T24A, V56G, F95Y
VL: B2 VL with F36Y, T43A
notes: humanized mAb-99: hAb99VH2 + hAb99VL1; human IgG1 (L234A, L235A) / kappa constant regions
As to B10, the EC50 amounted to 500 pM.

B11: hAb99-12 (antibody, human IgG1, kappa, L234A L235A, V domains shown)
VH: B2 VH with V56G
VL: B2 VL with I2V, M4I, Q38E, V58I
notes: humanized mAb-99: hAb99VH3 + hAb99VL4; human IgG1 (L234A, L235A) / kappa constant regions
B11: the response was half-maximal at 330 pM (EC50).

B12: hAb99-15 (antibody, human IgG1, kappa, L234A L235A, V domains shown)
VH: B2 VH with T24A, G44R, N55Q, V56G, F95Y
VL: B2 VL
notes: humanized mAb-99: hAb99VH1-QG + hAb99VL2; human IgG1 (L234A, L235A) / kappa constant regions
As to B12, the 50% effective concentration (EC50) worked out at 410 pM.

B13: hAb99-16 (antibody, human IgG1, kappa, L234A L235A, V domains shown)
VH: B2 VH with T24A, F95Y
VL: B2 VL
notes: humanized mAb-99: hAb99VH2-NV + hAb99VL2; human IgG1 (L234A, L235A) / kappa constant regions
The molecule B13 showed an EC50 of 470 pM.

B14: hAb99-9 (antibody, human IgG1, kappa, L234A L235A, V domains shown)
VH: B2 VH with V56G
VL: B2 VL with F36Y, T43A
notes: humanized mAb-99: hAb99VH3 + hAb99VL1; human IgG1 (L234A, L235A) / kappa constant regions
Molecule B14 came in with a concentration giving a half-maximal response (EC50) of 470 pM.

B15: hAb99-4 (antibody, human IgG1, kappa, L234A L235A, V domains shown)
VH: B2 VH with T24A, G44R, V56G, F95Y
VL: B2 VL with I2V, M4I, Q38E, V58I
notes: humanized mAb-99: hAb99VH1 + hAb99VL4; human IgG1 (L234A, L235A) / kappa constant regions
In turn, B15 gave a half-maximal effective concentration (EC50) of 370 pM.

B16: hAb99-1 (antibody, human IgG1, kappa, L234A L235A, V domains shown)
VH: B2 VH with T24A, G44R, V56G, F95Y
VL: B2 VL with F36Y, T43A
notes: humanized mAb-99: hAb99VH1 + hAb99VL1; human IgG1 (L234A, L235A) / kappa constant regions
The molecule B16 displayed an EC50 of 610 pM.

B17: hAb99-14 (antibody, human IgG1, kappa, L234A L235A, V domains shown)
VH: B2 VH with T24A, G44R, V56L, F95Y
VL: B2 VL
notes: humanized mAb-99: hAb99VH1-NL + hAb99VL2; human IgG1 (L234A, L235A) / kappa constant regions
B17 gave a half-maximal effective concentration (EC50) of 600 pM.

B18: hAb99-2 (antibody, human IgG1, kappa, L234A L235A)
heavy: not shown
light: B1 light
notes: humanized mAb-99: hAb99VH1 + hAb99VL2; human IgG1 (L234A, L235A) / kappa constant regions
Consider B18, for which the EC50 stood at 350 pM.

B19: hAb99-21 (antibody, human IgG1, kappa, L234A L235A, V domains shown)
VH: B2 VH with N55Q, V56G
VL: B2 VL
notes: humanized mAb-99: hAb99VH3-QG + hAb99VL2; human IgG1 (L234A, L235A) / kappa constant regions
Turning to B19, the EC50 stood at 450 pM.

B20: hAb99-17 (antibody, human IgG1, kappa, L234A L235A, V domains shown)
VH: B2 VH with T24A, V56L, F95Y
VL: B2 VL
notes: humanized mAb-99: hAb99VH2-NL + hAb99VL2; human IgG1 (L234A, L235A) / kappa constant regions
With B20, the half-maximal effective concentration (EC50) stood at 430 pM.

B21: hAb18-2 (antibody, human IgG1, kappa, L234A L235A, V domains shown)
VH: EVQLVQSGAEVKKPGASVKVSCKASGYTFTDYAMHWVRQAPGQRLEWMGVISTYSGTTNYNQNFKGRVTITVDKSASTAYMELSSLRSEDTAVYYCARSGPLDYWGQGTTVTVSS
VL: ENVLTQSPDFQSVTPKEKVTITCRASSSVSSSYLHWYQQKPDQSPKLWIYSTSNLASGVPSRFSGSGSGTDYTLTINSLEAEDAATYYCQQYSGYPLTFGQGTKLEIKR
notes: humanized mAb-18: hAb18VH1 + hAb18VL2; human IgG1 (L234A, L235A) / kappa constant regions
B21 came in with a half-maximal effective concentration (EC50) of 1580 pM.

B22: hAb18-5 (antibody, human IgG1, kappa, L234A L235A, V domains shown)
VH: B21 VH with A24G, M48I, V68A, I70V
VL: B21 VL with N2I, Y72F
notes: humanized mAb-18: hAb18VH3 + hAb18VL1; human IgG1 (L234A, L235A) / kappa constant regions
In the case of B22, the response was half-maximal at 1800 pM (EC50).

B23: hAb18-4 (antibody, human IgG1, kappa, L234A L235A, V domains shown)
VH: B21 VH with A24G, I70V
VL: B21 VL
notes: humanized mAb-18: hAb18VH2 + hAb18VL2; human IgG1 (L234A, L235A) / kappa constant regions
Turning to B23, a half-maximal response (EC50) required 2000 pM.

B24: hAb18-6 (antibody, human IgG1, kappa, L234A L235A, V domains shown)
VH: B21 VH with A24G, M48I, V68A, I70V
VL: B21 VL
notes: humanized mAb-18: hAb18VH3 + hAb18VL2; human IgG1 (L234A, L235A) / kappa constant regions
Turning to B24, the concentration giving a half-maximal response (EC50) stood at 2000 pM.

B25: hAb18-3 (antibody, human IgG1, kappa, L234A L235A, V domains shown)
VH: B21 VH with A24G, I70V
VL: B21 VL with N2I, Y72F
notes: humanized mAb-18: hAb18VH2 + hAb18VL1; human IgG1 (L234A, L235A) / kappa constant regions
Molecule B25 showed an EC50 of 1900 pM.

B26: hAb18-1 (antibody, human IgG1, kappa, L234A L235A, V domains shown)
VH: B21 VH
VL: B21 VL with N2I, Y72F
notes: humanized mAb-18: hAb18VH1 + hAb18VL1; human IgG1 (L234A, L235A) / kappa constant regions
The molecule B26 displayed an EC50 of 1340 pM.

The record behind these values is patent publication US20240270874A1 (JIANGSU HENGRUI PHARMACEUTICALS, published 2024).
